Assay [1] deals with Wild-type (Col-0), Δppd mutant and transgenic PPD-OX seedlings. As to the kind of experiment: Hypocotyl length response to exogenous GA or PAC. The class given is in vivo, Arabidopsis. The text has this: Giberellic acid (GA) treatment is known to reduce levels of the DELLA proteins (including RGA1) which are GA repressors; to determine the relationship between PPD, DELLA and the GA signalling pathway the applicants performed a yeast two-hybrid (Y2H) analysis between PPD and DELLA (RGA1) and applied gibberellic acid (GA) hormone and GA biosynthesis inhibitor (paclobutrazol, PAC) to wild type, Δppd mutant, and the Δppd mutant PPD over expressor (PPD-OX).
For exogenous applications of GA or PAC seeds were surface sterilised with 70% ethanol, 0.01% Triton X-100 for 10 min, followed by 100% ethanol for 5 min, air dried on sterile filter paper, and transferred to media plates containing half-strength MS salts, 1% sucrose and 0.8% agar. Plates were incubated for 5 days at 4° C. in the dark then transferred to 24° C. with a 14 h light/10 h dark daily cycle. Light was provided by fluorescent tubes (Philips TLD 58W/865) at an intensity of 100 μM m^−2 s^−1. Wild-type (Col-0) Δppd mutant and transgenic PPD-OX seedlings were grown for five days on medium with different concentrations of GA (FIG. 10A) or PAC (FIG. 10B). GA (ACROS organics), and PAC (Sigma-Aldrich) were dissolved in ethanol and acetone respectively, filter sterilised and incorporated into media plates. Ethanol or acetone (0.5%) was used for mock treatments. Seedlings were grown at 24° C. under a 14 h light/10 h dark daily cycle for 5 days before hypocotyl lengths were analysed (n=35). Each treatment was repeated twice; error bars=standard error of the mean.

Another assay concerns the target T1, BZR1 (Arabidopsis thaliana, UniProt Q8S307).
T1 construct: expressed in transfected cells; host or cells: Nicotiana benthamiana leaves (Agrobacterium infiltration)
T1 sequence (Q8S307 1-336): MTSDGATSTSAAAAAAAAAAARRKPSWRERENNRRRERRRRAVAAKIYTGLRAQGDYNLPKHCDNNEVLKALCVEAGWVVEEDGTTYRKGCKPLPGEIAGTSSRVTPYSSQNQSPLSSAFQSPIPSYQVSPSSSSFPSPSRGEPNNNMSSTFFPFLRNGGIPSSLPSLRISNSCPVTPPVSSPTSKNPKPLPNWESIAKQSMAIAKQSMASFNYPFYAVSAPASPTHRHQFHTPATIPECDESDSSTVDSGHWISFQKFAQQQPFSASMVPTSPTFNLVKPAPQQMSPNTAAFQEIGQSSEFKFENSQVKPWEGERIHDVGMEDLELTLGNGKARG
As to the kind of experiment: BiFC interaction with BZR1 in Nicotiana benthamiana leaves. The class given is cell-based. The settings on record: fully expanded leaves, co-expressed with cYFP-BZR1. From the text: The binary BiFC-Gateway YFP vectors pDEST-VYNE(R)^GW (Venus aa 1-173) and pDEST-VYCE(R)^GW (Venus aa 156-239) with N-terminal fusions, were used to construct the following vectors; pDESTnYFP-BZR1, pDESTnYFP-NINJA, pDESTnYFP-PPD1, pDESTcYFP-BZR1, pDESTcYFP-PPD1, pDESTcYFP-PPD1Δppd, pDESTcYFP-PPD1Δtify and pDESTcYFP-PPD1Δjas*. […] Plasmids for co-immunoprecipitation: A synthesised DNA construct encoding PPD1 with a 3×c-myc C-terminal fusion was sub-cloned into pRSh1 to produce pRSh1-PPD1-3×c-myc, while the NINJA cDNA sequence was sub-cloned into pB7FWG2,0 (Karimi et al 2002, Trends Plant Sci. 7, 193-195) to construct pB7FWG2-NINJA-GFP.
For infiltration Agrobacterium tumefaciens GV3101 strains containing the binary vectors were re-suspended from plates and prepared for transformation as described for the LUC assay. All YFP and expression strains were mixed in ratios of 1:1 (vol/vol) with the addition of strain P19 at 1/10th volume. Five leaf discs were sampled from each infiltrated leaf after 40 h. Two hours prior to sampling for microscopic fluorescence observations leaves were infiltrated with a 1 μg/ml DAPI solution to stain nuclei. YFP fluorescence and DAPI staining was detected using an Olympus Fluoview FV10i confocal laser scanning microscope. Each experiment was repeated twice.

The test system of assay [2] is PEAPOD deletion mutant Δppd Arabidopsis thaliana ecotype Landsberg erecta. As to the kind of experiment: Complementation of the Arabidopsis Δppd mutant leaf phenotype. Particulars: optimized PEAPOD coding sequence under CaMV35s promoter, seedlings (FIG. 13). The class given is in vivo. The text has this: The functionality of any PEAPOD sequence can be confirmed by complementation of the Arabidopsis Δppd mutant leaf phenotype. Complementation of the Arabidopsis Δppd mutant leaf phenotype was first used to identify the Arabidopsis PPD gene (White 2006). This was seen by a restoration of the wild type flattened leaf phenotype and normal rosette shape as opposed to the domed leaf and the twisting of the rosette to a “propeller” phenotype.
Constructs above can be transformed into Arabidopsis by the floral dip infiltration method (Clough and Bent, 1998 Plant J 16, 735-43). The Δppd line is transformed to express the PPD polypeptides by standard techniques. Transgenic plants are confirmed by standard PCR analysis techniques with a combination of transgene-specific and T-DNA primers.
Complementation of the Δppd line to produce a wild-type leaf and rosette phenotype in T1 seedlings (the off-spring of the infiltrated plant) confirms PEAPOD functionality of the introduced gene, which can be shown in photographs.

Another assay relates to ryegrass plants. The assay is described as follows: Root biomass analysis of ryegrass transformants. In kind it is in vivo. The settings on record: approximately 6 weeks in glasshouse. The method, then: An equal number (typically 4-10) of tillers were taken from WT and ryegrass plants transformed with Arabidopsis PPD under a constitutive promoter. Tillers were planted into plastic grow bags containing potting mix and pruned to be of equal height. […] The increase in root biomass was quantified by washing the roots under running water then removing the attached above ground portion (leaves and stems) and drying the roots at 65° C. for 48 hr then weighing the dry weights (Table 2).
An equal number (typically 4-10) of tillers were taken from WT and ryegrass plants transformed with Arabidopsis PPD under one of three root promoters. Tillers were planted into plastic grow bags containing potting mix and pruned to be of equal height. […] The increase in root biomass was quantified by washing the roots under running water then removing the attached above ground portion (leaves and stems) and drying the roots at 65° C. for 48 hr then weighing the dry weights (Table 3 and Table 4)

For the next assay, the system named is Δppd Arabidopsis plants. The assay is described as follows: Root biomass analysis of Arabidopsis transformants. The class given is in vivo. The settings on record: constitutive promoter, approximately 6 weeks in growth cabinet. Here is the method:
Seeds from WT and Δppd Arabidopsis plants transformed with T. repens PPD under a constitutive promoter were scarified and sown into potting mix. […] The increase in root biomass was quantified by washing the roots under running water then the attached above ground portion (leaves and stems) was removed and the roots dried at 65° C. for 48 hr then weighed.

The source of these data is patent US10337022B2, “Methods of increasing root biomass in plants” (Agresearch Limited, priority 2014, dated 2019).

Turning to `CC(C)(C)[C@@H](O)[C@@H](Cc1ccc(Cl)cc1)n1cncn1` (racemic) [PAC, paclobutrazol], the hypocotyl length result is “decrease in hypocotyl length” in assay [1] (PPD-OX seedlings, PAC beyond 0.1 μM) and “relatively insensitive” in assay [1] (PPD-OX seedlings, PAC up to 0.1 μM). Further, the hypocotyl elongation result is “dose dependent decrease of hypocotyl elongation” in assay [1] (wild type seedlings, 0 to 10 μM PAC) and “larger reduction in hypocotyl elongation” in assay [1] (Δppd seedlings, 0 to 10 μM PAC, compared with wild type).
Turning to `C=C1C[C@]23C[C@@]1(O)CC[C@H]2[C@@]12C=C[C@H](O)[C@@](C)(C(=O)O1)[C@H]2[C@@H]3C(=O)O` [GA, gibberellic acid], the hypocotyl elongation entry is listed as “increased hypocotyl elongation” in assay [1] (PPD-OX seedlings, 1 μM GA, 5 days); “hypersensitive elongation” in assay [1] (PPD-OX seedlings, up to 10 μM GA); “elongation of the WT hypocotyl occurred in a dose dependent manner” in assay [1] (WT seedlings, 5-50 μM GA, 5 days); “did not promote elongation” in assay [1] (wild type (WT) seedlings, 1 μM GA, 5 days); “increased hypocotyl elongation” in assay [1] (Δppd seedlings, 1 μM GA, 5 days); “hypersensitive elongation” in assay [1] (Δppd seedlings, up to 5 μM GA).
As for “nYFP-PPD1: PPD1 with N-terminal fusion of Venus aa 1-173 for BiFC”, the “BiFC interaction with BZR1” value with BZR1 was “no interaction was observed”.

B1: P. sitchensis PPD: Picea sitchensis PEAPOD protein, SEQ ID NO: 5 (protein, listed as Picea sitchensis)
chain: MRGGERAPGSRPSLDKPLEELTEEDIFQLTREDCRRYLKEKGMRRPSWNKSQAIQQVLSLKSLFESKPNQQSKKPSKHKPATLQFETARDSTFAQSSVSQEQSLGFSWSKEVLDKGTAERQRLCSDSQEAHEIPRLGSKPPQSNTEGKRCAHDGHGRKSAQPLVRLPANFKNDCSNRQSSHTSESQPDTLLRSDSFQQPTAQLTIFYAGMVNVYDDVPLDKA
For the molecule B1, the “PEAPOD functionality by complementation of Δppd mutant” value (shortened to “PEAPOD functionality … of Δppd mutant”) in assay [2] was “functionally equivalent”. Further, the “root growth beyond the grow bag compared to WT plants” value in the assay with ryegrass plants (constitutive promoter) and in the assay on ryegrass plants (one of three root promoters) was “increase in root biomass/growth/length/branching” throughout.

B2: P. abies PPD: Picea abies PEAPOD protein, SEQ ID NO: 4 (protein)
chain: MRGGGGADRLPARANLEKPLEDLSHEDIMQLTREDCRRYLIEKGMRRPSWNKSQAIQQVLSLKKLFESGPNDEKRSAATNRPNPDENLKEAASVSLLYGSQPESPSVVFASKDSDTFNLEWLAKTELPVLASQPRHIAQQNVFLSSLSAQQSGAQLTIFYSGNVNVYDDVPAEKAQEIMLLAGSGNYPPSSTCQSTRNTQQNAVRAAYPSNPTNTPFIHGVGPPLATVASSSVMSSPIHKESPITRKASLQRFLEKRKDRSRGKLGAPTISKKPLLMGMFMHPSIVHRQYWTDTAKRKSGKPDIPASISPTRPPHTPRRTSSDEQLSARHARGDISAQGGSLHNSN
modifications: Picea abies
On to B2, for which, in the assay with Δppd Arabidopsis plants, the “root growth beyond the pot compared to WT plants” value is recorded as “increase in root biomass/growth/length/branching”.

B3: T. repens PPD: Trifolium repens PEAPOD protein, SEQ ID NO: 11 (protein, listed as Trifolium repens)
chain: MNGGSTVSFRSILDKPLNQLTEDDISQLTREDCRRFLKDKGMRRPSWNKSQAIQQVISLKALLEPTDDDLPAPVGVSSAIHHHHHHHPQPPQRNLNEAPVKGSDLDDTGFHTAEDLNKSTSTAVEIPTETNDANVVKSSGGCVASGSFGQMTIFYCGKVNVYDGVSPDKARSIMQLAACPSSFPQDNLLNKNAAVWASPCNIPIDKDVLFPNDTAILQVAQTDKMVEYPLQYREKGSIARDADVEGQASRNASLQRYREKRKDRGRSKGNKLTGITSSNFEMYLNLPVKLHASNGNSSRSSTDSPPQPRLPLVSGGSAENQPKVTLPIDLNDKDVQEC
For B3, in assay [2], the “PEAPOD functionality … of Δppd mutant” value is “functionally equivalent”. Moreover, the “root growth beyond the grow bag compared to WT plants” value with ryegrass plants (constitutive promoter) and with ryegrass plants (one of three root promoters) was “increase in root biomass/growth/length/branching” in each case. In addition, in the assay on Δppd Arabidopsis plants, the “root growth beyond the pot compared to WT plants” value is “increase in root biomass/growth/length/branching”.

B4: A. trichopoda PPD: Amborella trichopoda PEAPOD protein, SEQ ID NO: 12 (protein, listed as Amborella trichopoda)
chain: MTAGDGSIRSILDKPLEELTEEDISQLTREDCRRYLKEKGMRRPSWNKYQAIQQVLSLKGLLEGKPCDDNSDVFSHRSPITVIPNVGSMREKEKAVNIADPEISGSHQPNFRREIHETTRERALPASDWPPSQEPVSQMTIFYAGAVNVYNDIPEDKVQAIIYLAGKSDSLQQTNVIRTGPDQCIASAASPSLNDLHSRRIHPTSNITTSQSLRVATSLPVGPHSEVPKTRKTSVQRFLEKRKDRGRLKGTLASGGSSKRGSSCLELYATSRLKSEGVATTTTQSNMNNVVVSPSNPRMPLNPGSCSWVEN
B4: the “PEAPOD functionality … of Δppd mutant” value in assay [2] is “functionally equivalent”. For the same molecule, the “root growth beyond the grow bag compared to WT plants” value in the assay on ryegrass plants (constitutive promoter) and in the assay with ryegrass plants (one of three root promoters) was “increase in root biomass/growth/length/branching” throughout. Also, the “root growth beyond the pot compared to WT plants” value in the assay with Δppd Arabidopsis plants is “increase in root biomass/growth/length/branching”.
